Numbered stars: 1 amine (or outer) side, 2 acyl side, 3 side chain; on linkers, the order of the positions; unused ones are H or OH. Bridge positions count the residues as written; N and C are the ends. Side chains are listed from the residue outwards. Ends that are not written are not given here. * marks the point of attachment. C20 diacid = O=C(O)CCCCCCCCCCCCCCCCCCC(=O)*; γGlu = O=C(O)[C@H](CCC(=O)[*:2])N[*:1]
Target: T1, human amylin receptor (amylin 3(a) receptor: human calcitonin receptor with RAMP-3) (human, UniProt P30988 25-474; O60896 24-148)
T1 construct: whole, on cells; also called hAmylin-R; hAmylinR
T1 sequence (looked up) 1: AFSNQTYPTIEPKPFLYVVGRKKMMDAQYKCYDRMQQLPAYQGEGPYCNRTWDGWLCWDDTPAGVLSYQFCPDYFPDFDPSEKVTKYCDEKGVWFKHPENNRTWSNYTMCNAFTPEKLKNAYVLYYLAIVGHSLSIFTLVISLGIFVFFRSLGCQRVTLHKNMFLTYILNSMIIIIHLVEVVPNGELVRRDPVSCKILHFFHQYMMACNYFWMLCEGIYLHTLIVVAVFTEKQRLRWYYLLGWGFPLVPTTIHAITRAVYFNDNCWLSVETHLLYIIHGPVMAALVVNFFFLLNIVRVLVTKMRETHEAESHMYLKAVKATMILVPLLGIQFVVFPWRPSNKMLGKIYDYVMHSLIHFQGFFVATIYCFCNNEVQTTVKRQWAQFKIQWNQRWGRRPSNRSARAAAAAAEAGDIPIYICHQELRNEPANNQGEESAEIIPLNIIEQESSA
T1 sequence (looked up) 2: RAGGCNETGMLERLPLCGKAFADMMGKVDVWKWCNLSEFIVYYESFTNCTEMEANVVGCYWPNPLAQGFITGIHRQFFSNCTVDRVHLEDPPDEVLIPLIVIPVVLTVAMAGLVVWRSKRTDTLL
Assay: SPA displacement of 125I-rat amylin, hAmylin 3(a) receptor membranes
In short: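 Membranes from BHK Amylin 3(a)/CRE-luc cells (35 ng/μL final) were mixed with SPA beads and test compounds in 50 mM Hepes pH 7.4 with 1 mM CaCl2, 5 mM MgCl₂, 0.1% OA and 0.02% Tween20. Incubation ran 120 min at 25° C with shaking; IC₅₀ came from one-site competition fitting.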

B1: N^ε1-[(4S)--4-carboxy-4-(19-carboxynonadecanoylamino)butanoyl]-[Glu14,Arg17,Pro21,Pro27,Pro37]-h-amylin (peptide)
peptide: K([γGlu-C20 diacid])CNTATCATQRLAEFLRHSSPNFGAIPSSTNVGSNTP-NH2
modifications: disulfide 2-7; N-terminus assumed
SMILES: CC[C@H](C)[C@H](NC(=O)[C@H](C)NC(=O)CNC(=O)[C@H](Cc1ccccc1)NC(=O)[C@H](CC(N)=O)NC(=O)[C@@H]1CCCN1C(=O)[C@H](CO)NC(=O)[C@H](CO)NC(=O)[C@H](Cc1c[nH]cn1)NC(=O)[C@H](CCCNC(=N)N)NC(=O)[C@H](CC(C)C)NC(=O)[C@H](Cc1ccccc1)NC(=O)[C@H](CCC(=O)O)NC(=O)[C@H](C)NC(=O)[C@H](CC(C)C)NC(=O)[C@H](CCCNC(=N)N)NC(=O)[C@H](CCC(N)=O)NC(=O)[C@@H](NC(=O)[C@H](C)NC(=O)[C@@H]1CSSC[C@H](NC(=O)[C@@H](N)CCCCNC(=O)CC[C@H](NC(=O)CCCCCCCCCCCCCCCCCCC(=O)O)C(=O)O)C(=O)N[C@@H](CC(N)=O)C(=O)N[C@@H]([C@@H](C)O)C(=O)N[C@@H](C)C(=O)N[C@@H]([C@@H](C)O)C(=O)N1)[C@@H](C)O)C(=O)N1CCC[C@H]1C(=O)N[C@@H](CO)C(=O)N[C@@H](CO)C(=O)N[C@H](C(=O)N[C@@H](CC(N)=O)C(=O)N[C@H](C(=O)NCC(=O)N[C@@H](CO)C(=O)N[C@@H](CC(N)=O)C(=O)N[C@H](C(=O)N1CCC[C@H]1C(N)=O)[C@@H](C)O)C(C)C)[C@@H](C)O
notes: also called 12; compound 12
With B1 the IC50 was 0.142 nM.

B2: N^ε1N^ε1-[(4S)-4-carboxy-4-(19-carboxynonadecanoylamino)butanoyl]-[His14,Arg17,Pro21,Pro27,Pro34]-h-amylin (peptide)
peptide: K([γGlu-C20 diacid])CNTATCATQRLAHFLRHSSPNFGAIPSSTNVGPNTY-NH2
modifications: disulfide 2-7; N-terminus assumed
SMILES: CC[C@H](C)[C@H](NC(=O)[C@H](C)NC(=O)CNC(=O)[C@H](Cc1ccccc1)NC(=O)[C@H](CC(N)=O)NC(=O)[C@@H]1CCCN1C(=O)[C@H](CO)NC(=O)[C@H](CO)NC(=O)[C@H](Cc1c[nH]cn1)NC(=O)[C@H](CCCNC(=N)N)NC(=O)[C@H](CC(C)C)NC(=O)[C@H](Cc1ccccc1)NC(=O)[C@H](Cc1c[nH]cn1)NC(=O)[C@H](C)NC(=O)[C@H](CC(C)C)NC(=O)[C@H](CCCNC(=N)N)NC(=O)[C@H](CCC(N)=O)NC(=O)[C@@H](NC(=O)[C@H](C)NC(=O)[C@@H]1CSSC[C@H](NC(=O)[C@@H](N)CCCCNC(=O)CC[C@H](NC(=O)CCCCCCCCCCCCCCCCCCC(=O)O)C(=O)O)C(=O)N[C@@H](CC(N)=O)C(=O)N[C@@H]([C@@H](C)O)C(=O)N[C@@H](C)C(=O)N[C@@H]([C@@H](C)O)C(=O)N1)[C@@H](C)O)C(=O)N1CCC[C@H]1C(=O)N[C@@H](CO)C(=O)N[C@@H](CO)C(=O)N[C@H](C(=O)N[C@@H](CC(N)=O)C(=O)N[C@H](C(=O)NCC(=O)N1CCC[C@H]1C(=O)N[C@@H](CC(N)=O)C(=O)N[C@H](C(=O)N[C@@H](Cc1ccc(O)cc1)C(N)=O)[C@@H](C)O)C(C)C)[C@@H](C)O
notes: also called 67; compound 67
B2 showed an IC50 of 0.09 nM.
